{"source": "paper PMC10675646", "about": "(Viruses, 2023)", "molecular_target": "T1, TRAF2 TRAF-C domain (human TRAF2 residues 315-501), tag cleaved, for crystallization (human, UniProt Q12933 315-501)", "T1 sequence (looked up)": "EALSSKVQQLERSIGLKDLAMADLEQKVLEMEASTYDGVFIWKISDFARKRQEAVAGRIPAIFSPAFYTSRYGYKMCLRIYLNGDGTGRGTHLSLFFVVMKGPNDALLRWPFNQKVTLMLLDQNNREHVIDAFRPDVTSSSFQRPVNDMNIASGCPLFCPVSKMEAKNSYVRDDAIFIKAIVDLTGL", "experiment": "crystal structure", "conditions": "both partners purified", "note": "Where no end group is shown, it is not given here. [ ]: non-standard residue; d: D form. SeMet = C[Se]CC[C@H](N)C(=O)O", "data": [{"binder": "RATATIP[SeMet]QASLPFGW", "values": [{"measurement": "binding result", "value": "binds"}]}]}
